{
  "source": "patent US20230090114A1",
  "about": "“METHODS FOR PROMOTING WEIGHT LOSS” (89BIO LTD., priority 2020, published 2023)",
  "key": {"[1]": {"experiment": "Body weight of CD-1 mice, 4-week SC treatment", "format": "in vivo", "protocol": "Detailed Methods: Adult male CD-1 mice at 6 weeks of age at receipt (with an expected weight of 35-39 g) were purchased from Charles River (St Germain sur l'Arbresle, France). From receipt, mice were singly housed and allowed ad libitum access to water and to a control diet (pellet A04; SAFE, Villemoisson-sur-Orge, France), unless otherwise noted (see Section D.). Throughout the study, animals were maintained in an ambient temperature (22.0±1.0° C.) and humidity (40-50%) controlled room on a 12-h light/12-h dark cycle (9:00 PM: Light ON/9:00 AM Light OFF).\nAt receipt and until the end of the experiment, all animals fed the control diet (A04 pellet). Following the acclimation and habituation periods, forty-eight (48) mice were subcutaneously treated either with vehicle, liraglutide (as the benchmark) or 89BIO-100 (3 different doses tested).\nFrom T1 to T28, vehicle and 89BIO100 (at the 3 different doses) were administrated by subcutaneous (SC) injection three times a week, while the treatment with liraglutide was administrated by subcutaneous route, twice a day, every day. It was important to notice that the first dosing was done just before the […] (at 9:00 AM) and the second dosing was done 8 hours after the first one (at 5:00 PM). Throughout the treatment period, FI and BW were daily measured.\n(§1) General Methods: Naive CD-1 mice were treated subcutaneously (SC) for 4 weeks at ambient temperature with BIO89-100 at doses of 0, 0.3, 1.0 and 3.0 mg/kg (3qW×4 weeks) or with liraglutide at 0.2 mg/kg (BID×4 W; SC). BW and FC were measured daily throughout the treatment period. To investigate the impact of BIO89-100 on energy expenditure, the respiratory exchanges (VO2 and VCO2) were recorded during 3 distinct sessions of METABOpack™, a multiparametric approach allowing an automated and simultaneous recording of FC, water intake, respiratory exchanges and spontaneous activity. Meal pattern analysis was conducted on the high-resolution recordings of FC. The body composition (fat, lean and fluid masses) was analyzed 3 times during the study by the mean of Time-Domain Nuclear Magnetic Resonance (TD-NMR)."}, "[2]": {"experiment": "Body composition (minispec Analyzer, TD-NMR)", "format": "in vivo, CD-1 mice", "protocol": "For body composition analyses, a minispec Analyzer (LF90II, Bruker, Germany) was used. The LF90II provides an accurate measure of the whole-body lean mass, fat mass and free fluid mass in living and vigil animals.\nBody composition was measured using a minispec Analyzer (LF90II, Bruker, Germany) one (1) day before treatment start on habituation day 7 (H7) and on treatment day 13 (T13) and treatment day 25 (T25) of Treatment days. Briefly, each mouse was placed in a red clear plastic tube sealed by a plunger. Then, the tube was inserted into the minispec Analyzer for measurement of body composition (˜ 2 min/measurement). Once the measurement completed, the mouse was removed from the plastic tube and immediately replaced into its cage. The tube and the plunger were washed and dried between each mouse. As a reminder, the Minispec analyser allows fast and precise measurements of fat tissue (g) (adipose tissue), lean tissue (g) (mainly muscles) and free fluid content (g). It should be noted that each measurement was performed just prior to a METABOpack™ session in order to normalize the respiratory exchanges-related parameters of each mouse by its lean mass (see METABOpack™ session section).\nas §1"}, "[3]": {"experiment": "Semi-fasted blood glucose (4 hours of fasting)", "format": "in vivo, CD-1 mice"}, "[4]": {"experiment": "Organ/tissue weights on T28", "format": "in vivo, CD-1 mice", "details": "for eWAT weight: T28", "protocol": "On T28, after 4 hours of fasting, a terminal sampling of blood and organs/tissues was performed on anaesthetized mice (by a mixture of Ketamine/Xylazine, 80/10 mg/kg). A large blood sample was collected by cardiac puncture, and the following organ/tissues were collected, weighed, snap-frozen in liquid nitrogen and stored at −80° C. for further analyses: […]"}, "[5]": {"experiment": "Total spontaneous activity and rearing (METABOpack sessions)", "format": "in vivo, CD-1 mice", "details": "T2; WD; 0.3 and 3 mg/kg; vs Liraglutide", "protocol": "Horizontal spontaneous activity and rearing behavior were recorded every second by the Physiocage System. The analysis was performed by plotting data every 30 minutes in order to obtain the kinetic of the behaviors. For each mouse, the sums of the activity and rearing events were calculated for each nycthemeral phase (Diurnal period or DP; Nocturnal period or NP and Whole Day or WD). The means per nycthemeral phase were then calculated for each group for statistical comparisons."}, "[6]": {"details": "BIO89-100-treated CD-1 mice, overall"}, "[7]": {"details": "T13, three doses, vs Liraglutide"}},
  "data": [
    {"molecule": "Mutant FGF21-GalNAc-SA-PEG-20 kDa (conjugate) MHPIPDSSPLLQFGGQVRQRYLYTDDAQQTEAHLEIREDGTVGGAADQSPESLLQLKALKPGVIQILGVKTSRFLCQRPDGALYGSLHFDPEACSFRELLLEDGYNVYQSEAHGLPLHLPGNKSPHRDPAPRGPARFLPLPGLPPALPEPPGILAPQPPDVGSSDPLSMVGPTQGASPSYAS", "values": [
      {"measurement": "delta body weight", "setting": "[1]; 0.3 mg/kg, vs Liraglutide, T2-T11, T13-T16", "result": "increase in delta body weight"},
      {"measurement": "body weight", "setting": "[1]; 0.3 mg/kg, vs Liraglutide, T2-T24 and T26", "result": "greater body weight"},
      {"measurement": "delta body weight", "setting": "[1]; 0.3 mg/kg, vs vehicle, T3-T6", "result": "increase in delta body weight"},
      {"measurement": "delta body weight", "setting": "[1]; 1 mg/kg, vs 0.3 mg/kg, T6-T21", "result": "significant decrease in delta body weight"},
      {"measurement": "body weight", "setting": "[1]; 1 mg/kg, vs Liraglutide, T2-T5", "result": "greater body weight"},
      {"measurement": "delta body weight", "setting": "[1]; 1 mg/kg, vs vehicle, T8-T21, T23, T24", "result": "marked decrease in delta body weight"},
      {"measurement": "delta body weight", "setting": "[1]; 3 mg/kg, vs 0.3 mg/kg, T5-T28", "result": "marked decrease in delta body weight"},
      {"measurement": "delta body weight", "setting": "[1]; 3 mg/kg, vs 1 mg/kg, T11, T12, T13, T15", "result": "significant decrease in delta body weight"},
      {"measurement": "body weight", "setting": "[1]; 3 mg/kg, vs 0.3 and 1 mg/kg, over treatment period", "result": "reduced the body weight"},
      {"measurement": "delta body weight", "setting": "[1]; 3 mg/kg, vs Liraglutide, T8-T13 and T25", "result": "significant decrease in delta body weight"},
      {"measurement": "body weight", "setting": "[1]; 3 mg/kg, vs Liraglutide, T11-T13", "result": "lower body weight"},
      {"measurement": "delta body weight", "setting": "[1]; 3 mg/kg, vs vehicle, T3 and T6-T28", "result": "marked decrease in delta body weight"},
      {"measurement": "body weight", "setting": "[1]; 3 mg/kg, vs vehicle, except T2, T3, T4", "result": "lower body weight"},
      {"measurement": "body weight", "setting": "[1]; 0.3 and 1 mg/kg, vs vehicle", "result": "did not show any difference in body weight"},
      {"measurement": "body weight", "setting": "[1]; 1 and 3 mg/kg, throughout treatment period (summary)", "result": "lower body weight in dose-dependent manner"},
      {"measurement": "delta body weight", "setting": "[1]; 1 and 3 mg/kg, vs Liraglutide, T2-T4", "result": "increase in delta body weight"},
      {"measurement": "decrease in BW", "setting": "[1]; naive CD-1 mice, 0.3-3.0 mg/kg SC 3qW x 4 weeks, dose-dependent, up to", "result": "up to −13.8%"},
      {"measurement": "fat mass", "setting": "[2]; [6]", "result": "marked decrease in fat mass"},
      {"measurement": "lean masses and body fluid", "setting": "[2]; [6]", "result": "without affecting"},
      {"measurement": "fat mass (g)", "setting": "[2]; T13, 3 mg/kg, vs 0.3 mg/kg", "result": "significantly decreased"},
      {"measurement": "fluid mass (g)", "setting": "[2]; T13, 3 mg/kg, vs 0.3 mg/kg", "result": "significantly decreased"},
      {"measurement": "lean mass (g)", "setting": "[2]; T13, 3 mg/kg, vs 0.3 and 1 mg/kg", "result": "reduction in lean mass"},
      {"measurement": "fluid mass (g)", "setting": "[2]; T13, 3 mg/kg, vs vehicle", "result": "significantly decreased"},
      {"measurement": "lean mass (g)", "setting": "[2]; T13, 3 mg/kg, vs vehicle", "result": "significantly decreased"},
      {"measurement": "fat mass (g)", "setting": "[2]; T13, 1 and 3 mg/kg, vs vehicle", "result": "reduction in fat mass"},
      {"measurement": "fat mass (g)", "setting": "[2]; [7]", "result": "No significant difference"},
      {"measurement": "fluid mass (g)", "setting": "[2]; [7]", "result": "No significant difference"},
      {"measurement": "lean mass (g)", "setting": "[2]; [7]", "result": "No significant difference"},
      {"measurement": "fat mass (g)", "setting": "[2]; T25, 1 and 3 mg/kg, vs vehicle", "result": "reduction in fat mass"},
      {"measurement": "fat mass (g)", "setting": "[2]; T25, three doses, vs Liraglutide", "result": "No significant difference"},
      {"measurement": "delta fat mass (g)", "setting": "[2]; T25 minus H7, 1 and 3 mg/kg, vs vehicle and Liraglutide", "result": "lower"},
      {"measurement": "blood glucose levels", "setting": "[3]; T3 and T16, between 89BIO-treated groups", "result": "no significant difference"},
      {"measurement": "blood glucose levels", "setting": "[3]; T3 and T16, whatever the dose, vs Liraglutide", "result": "higher blood glucose levels"},
      {"measurement": "blood glucose levels", "setting": "[3]; T3 and T16, whatever the dose, vs vehicle", "result": "did not alter"},
      {"measurement": "blood glucose levels", "setting": "[3]; T28, 3 mg/kg, vs 0.3 and 1 mg/kg", "result": "higher blood glucose levels"},
      {"measurement": "blood glucose levels", "setting": "[3]; T28, 3 mg/kg, vs vehicle", "result": "significant increase in blood glucose levels"},
      {"measurement": "blood glucose levels", "setting": "[3]; T29 (so in the source), 0.3 and 3 mg/kg, vs Liraglutide", "result": "increased"},
      {"measurement": "hypoglycemic action", "setting": "[3]; wild-type CD-1 mice, in contrast to Liraglutide (summary)", "result": "did not have a hypoglycemic action"},
      {"measurement": "epididymal white adipose tissue (eWAT) weight", "setting": "[4]; 89BIO-100 treated mice (summary)", "result": "strongly reduced"},
      {"measurement": "eWAT weight", "setting": "[4]; 1 and 3 mg/kg, vs vehicle", "result": "significant decrease in eWAT weight"},
      {"measurement": "eWAT weight", "setting": "[4]; among the three 89BIO-100 groups", "result": "no significant difference"},
      {"measurement": "total spontaneous activity", "setting": "[5]", "result": "higher total spontaneous activity"}
    ]}
  ]
}
